The experiment concerns the target T1, HLA-B*0702, biotinylated recombinant HLA class I molecule of the Alpha assay (human, biotin).
T1 chain: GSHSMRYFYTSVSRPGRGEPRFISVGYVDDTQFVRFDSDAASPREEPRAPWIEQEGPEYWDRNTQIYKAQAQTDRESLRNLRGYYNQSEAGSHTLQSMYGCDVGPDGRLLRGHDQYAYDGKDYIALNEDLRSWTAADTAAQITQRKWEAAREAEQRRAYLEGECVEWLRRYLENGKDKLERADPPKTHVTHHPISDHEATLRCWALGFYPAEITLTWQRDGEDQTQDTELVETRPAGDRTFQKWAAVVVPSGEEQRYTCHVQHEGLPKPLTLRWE

Numbered stars: 1 amine (or outer) side, 2 acyl side, 3 side chain; on linkers, the order of the positions; unused ones are H or OH. Square brackets hold non-standard residues; d marks the D form. Ends that are not written are not given here. OSE = (2S)-2-amino-3-sulfooxy-propanoic acid, sulfo-serine, O=C([C@H](COS(=O)(=O)O)N[*:1])[*:2]; Abu(4-PO3H2) = N[C@@H](CCP(=O)(O)O)C(=O)O; pS = N[C@@H](COP(=O)(O)O)C(=O)O

What is called Kd is the free concentration of one partner at which half of the binding sites on the other are occupied at equilibrium, for simple one-to-one binding. As to EPR[Abu(4-PO3H2)]PSHSM [E7P-MLL_(747–755) peptide EPR(E7P)PSHSM], the Kd worked out at 33.9 nM.
LPA[pS]PAHQL [pDOT1L_(998–1006) phosphopeptide LPA(pS)PAHQL]: the Kd turned out to be 309 nM.
Then EPR[pS]PSHSM [pMLL_(747–755) phosphopeptide EPR(pS)PSHSM], with 56.7 nM.
With EPR[OSE]PSHSM [OSE-MLL_(747–755) peptide EPR(OSE)PSHSM] the figure was 26.2 nM; with LPASPAHQL [DOT1L_(998–1006) peptide LPASPAHQL], 54.3 nM.
Then EPRSPSHSM [MLL_(747–755) peptide EPRSPSHSM], with 27 nM.

These data come from paper PMC10290117 (2023).
